Laboratory results from patent US20260007772A1.

Molecular target: Neutrophil elastase enzyme (Neutrophil Elastase Colorimetric Drug Discovery Kit, Enzo Life Sciences) (UniProt P08246)
Assay: cell-based or functional assay

Chain of UniProt P08246 (P08246 30-247 limits assumed): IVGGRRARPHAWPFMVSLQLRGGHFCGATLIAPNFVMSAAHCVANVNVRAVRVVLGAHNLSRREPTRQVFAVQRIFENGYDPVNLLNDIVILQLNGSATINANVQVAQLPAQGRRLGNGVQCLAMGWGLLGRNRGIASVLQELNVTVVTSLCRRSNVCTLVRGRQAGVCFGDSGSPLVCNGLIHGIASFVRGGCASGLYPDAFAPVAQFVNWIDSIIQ

- Average % Inhibition (Percent inhibition of Neutrophil Elastase in purified serum samples): 95.6%
Substance: endogenous A1AT of wild type mice (from UniProt O89094 168-257)
